Data reported in patent publication US20170291948A1 (SAMSUNG LIFE PUBLIC WELFARE FOUNDATION, published 2017).

T1: human NRP1 protein (human, UniProt O14786-2 22-644, limits assumed)
T1 construct: Protein used for ELISA coating (200 ng per well) and SPR; also called Neuropilin 1
T1 sequence (looked up): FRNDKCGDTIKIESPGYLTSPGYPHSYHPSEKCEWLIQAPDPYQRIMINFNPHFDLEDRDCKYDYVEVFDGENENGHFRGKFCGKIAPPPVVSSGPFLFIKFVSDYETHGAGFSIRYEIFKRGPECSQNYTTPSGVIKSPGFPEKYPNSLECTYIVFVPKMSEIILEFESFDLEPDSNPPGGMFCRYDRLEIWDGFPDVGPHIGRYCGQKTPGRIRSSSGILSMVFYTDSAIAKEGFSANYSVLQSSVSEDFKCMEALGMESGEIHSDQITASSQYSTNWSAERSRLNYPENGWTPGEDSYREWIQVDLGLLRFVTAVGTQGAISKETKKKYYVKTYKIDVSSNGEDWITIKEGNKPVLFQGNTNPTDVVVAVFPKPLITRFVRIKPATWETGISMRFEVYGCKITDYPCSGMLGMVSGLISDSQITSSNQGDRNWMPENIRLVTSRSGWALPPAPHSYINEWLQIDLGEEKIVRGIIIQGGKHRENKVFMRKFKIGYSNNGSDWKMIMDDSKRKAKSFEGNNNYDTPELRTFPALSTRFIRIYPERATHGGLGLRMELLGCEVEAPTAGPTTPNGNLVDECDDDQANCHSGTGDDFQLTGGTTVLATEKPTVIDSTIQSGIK


How the values were obtained:
[1] = target: NRP1 expressed on the surface of cancer cells (NRP1-overexpressing patient-derived cells); U87MG glioblastoma … (human, UniProt O14786 22-923); experiment: cell-based or functional assay
[2] = target: T1, human NRP1 protein; experiment: IgG on human NRP1; text says ELISA and SPR, the legend of FIG. 14 says ELISA

inhibition of tumor cells migration in patient-derived cells [1] [%] | Kd [2] [nM] | Binder
> 50 | – | IRCR-101 (3H10) anti-NRP1 IgG (antibody, V domains shown) VH: EVQLLESGGGLVQPGGSLRLSCAASGFTFSSYYMSWVRQAPGKGLEWVSAISPGSSNKYYADSVKGRFTISRDNSKNTLYLQMNSLRAEDTAVYYCARRKYMFDYWGQGTLVTVSS VL: QSVLTQPPSASGTPGQRVTISCTGSSSNIGNNDVYWYQQLPGTAPKLLIYSDSNRPSGVPDRFSGSKSGTSASLAISGLRSEDEADYYCASWDSSLSGYVFGGGTKLTVL
> 50 | – | 1A03 anti-NRP1 IgG (antibody, V domains shown) VH: EVQLLESGGGLVQPGGSLRLSCAASGFTFSSYYMSWVRQAPGKGLEWVSAISPGSSNKYYADSVQGRFTISRDNSKNTLYLQMNSLRAEDTAVYYCARRKKSFDYWGQGTLVTVSS VL: QSVLTQPPSASGTPGQRVTISCSGPSSNIGNNDVSWYQQLPGTAPKLLIYSDNNRPSGVPDRFSGSKSGTSASLAISGLRSEDEADYYCGAWVASLSAYVFGGGTKLTVL
40 | 0.6 | 4F12 anti-NRP1 IgG (antibody, V domains shown, scFv converted to IgG and made in the Expi 293F system, 150 kD; also called 4F12 antibody) VH: EVQLLESGGGLVQPGGSLRLSCAASGFTFSGYAMSWVRQAPGKGLEWVSGISPGSGSTYYADSVKGRFTISRDNSKNTLYLQMNSLRAEDTAVYYCAKRKTRFDYWGQGTLVTVSS VL: not shown
